Here are results for three molecules from article PMC5392571, “A model for the conformational activation of the structurally quiescent metalloprotease ADAMTS13 by von willebrand factor” (The Journal of Biological Chemistry, 2017).

A word on the Kd: it is a measure of binding affinity in units of concentration.

In assay [1] the target is T1, dimeric VWF D4-CK domain fragment (VWF residues 1874–2813) (UniProt P04275 1874-2813).
T1 construct: von Willebrand factor, residues 1874-2813 (D4 to CK domains); source: HEK293S, transiently expressed, purified by FPLC
In words: SPR; BIAcore T100, CM5 chip; ADAMTS13, its truncation variants or CUB fragments immobilised, VWF D4-CK as analyte; 10 mM HEPES, 150 mM NaCl, pH 7.4, 0.0034 mM EDTA, 0.005% Tween 20; global analysis. To be noted: both partners purified. Background: SPR reads the build-up and loss of mass on a sensor chip optically.

The target of assay [2] is T2, WT MDTCS (ADAMTS13 residues 1–685) (human, UniProt Q76LX8 30-685).
T2 construct: signal peptide in the construct; ADAMTS13, human, residues 1-685 (metalloprotease, disintegrin-like, TSP1, cysteine-rich and spacer domains); In pCEP4; also called truncated ADAMTS13 variant MDTCS; source: HEK293S cells, purified; not shown: His6, C-terminal, kept
T2 sequence (looked up): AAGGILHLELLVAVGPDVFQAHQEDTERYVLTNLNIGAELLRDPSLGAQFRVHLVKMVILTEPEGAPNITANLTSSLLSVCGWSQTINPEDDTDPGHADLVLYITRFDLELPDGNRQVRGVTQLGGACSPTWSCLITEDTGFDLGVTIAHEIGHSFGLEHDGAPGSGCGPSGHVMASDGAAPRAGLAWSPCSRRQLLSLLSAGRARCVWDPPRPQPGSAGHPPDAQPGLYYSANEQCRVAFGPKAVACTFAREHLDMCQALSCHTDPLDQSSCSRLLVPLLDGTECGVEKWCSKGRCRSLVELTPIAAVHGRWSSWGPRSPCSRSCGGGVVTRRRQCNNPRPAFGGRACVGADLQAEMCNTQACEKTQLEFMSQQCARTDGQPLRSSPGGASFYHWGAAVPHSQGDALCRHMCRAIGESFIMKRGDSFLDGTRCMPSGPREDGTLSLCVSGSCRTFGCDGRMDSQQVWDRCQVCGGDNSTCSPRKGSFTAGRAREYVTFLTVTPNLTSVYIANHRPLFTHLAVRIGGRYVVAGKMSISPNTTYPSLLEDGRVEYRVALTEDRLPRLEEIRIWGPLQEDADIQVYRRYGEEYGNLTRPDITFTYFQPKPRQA
In words: SPR; BIAcore T100, CM5 chip; 10 mM HEPES, 150 mM NaCl, pH 7.4, 0.0034 mM EDTA, 0.005% Tween 20; the text says MDTCS variants were immobilised, the legend of Fig. 1 says the CUB fragments were; global analysis. Particulars: both partners purified.

B1: CUB1-2 domain fragment (ADAMTS13 residues 1192–1427) (domain or fragment, human, UniProt Q76LX8 1192-1427, looked up)
chain: CGRQHLEPTGTIDMRGPGQADCAVAIGRPLGEVVTLRVLESSLNCSAGDMLLLWGRLTWRKMCRKLLDMTFSSKTNTLVVRQRCGRPGGGVLLRYGSQLAPETFYRECDMQLFGPWGEIVSPSLSPATSNAGGCRLFINVAPHARIAIHALATNMGAGTEGANASYILIRDTHSLRTTAFHGQQVLYWESESSQAEMEFSEGFLKAQASLRGQYWTLQSWVPEMQDPQSWKGKEGT
notes: ADAMTS13, human, residues 1192-1427 (CUB1 and CUB2 domains); Generated by inverse PCR from the full-length ADAMTS13 construct (C-terminal Myc/His6); source: HEK293S cells, purified
Turning to B1, the Kd was 51.8 nM in assay [1] and 55.6 nM in assay [2].

B2: CUB2 domain fragment (ADAMTS13 residues 1299–1427) (domain or fragment, human, UniProt Q76LX8 1299-1427, looked up)
chain: CDMQLFGPWGEIVSPSLSPATSNAGGCRLFINVAPHARIAIHALATNMGAGTEGANASYILIRDTHSLRTTAFHGQQVLYWESESSQAEMEFSEGFLKAQASLRGQYWTLQSWVPEMQDPQSWKGKEGT
notes: ADAMTS13, human, residues 1299-1427 (CUB2 domain); Generated by inverse PCR from the full-length ADAMTS13 construct (C-terminal Myc/His6); detected by anti-His6 in the co-IP; also called isolated CUB2 fragment; source: HEK293S cells, purified
B2: the Kd stood at 84.3 nM in assay [1] and 86.9 nM in assay [2].

B3: CUB1 domain fragment (ADAMTS13 residues 1192–1298) (domain or fragment, human, UniProt Q76LX8 1192-1298, looked up)
chain: CGRQHLEPTGTIDMRGPGQADCAVAIGRPLGEVVTLRVLESSLNCSAGDMLLLWGRLTWRKMCRKLLDMTFSSKTNTLVVRQRCGRPGGGVLLRYGSQLAPETFYRE
notes: ADAMTS13, human, residues 1192-1298 (CUB1 domain); Generated by inverse PCR from the full-length ADAMTS13 construct (C-terminal Myc/His6); detected by anti-His6 in the co-IP; also called isolated CUB1 fragment; source: HEK293S cells, purified
For B3, the Kd in assay [1] amounted to 53.7 nM; in assay [2], 135 nM.
